Test results published in patent US20250243265A1 (published 2025).

B1: 1F11/2H5/3F5 triple mutant IgG (antibody, name in Kabat numbering, V domains shown)
VH: EVQLVESGGGLVQPGGSLRLSCAASGFTFSNTYISWVRQAPGKGLEWVASITPSSGQTDYADSVKGRFTISADTSKNTAYLQMNSLRAEDTAVYYCARTWLLRWVMDYWGQGTLVTVSS
VL: DIQMTQSPSSLSASVGDRVTITCRASQDVSTAVAWYQQKPGKAPKLLIYSAKFLYSGVPSRFSGSGSGTDFTLTISSLQPEDFATYYCQQSYTNPPTFGQGTKVEIK
notes: S52K put into the 2H5 light chain, paired with the 3F5 heavy chain; human kappa IgG1
B2: 1F11/Y102L IgG (antibody, V domains shown)
VH: EVQLVESGGGLVQPGGSLRLSCAASGFTFSNTYISWVRQAPGKGLEWVASITPSSGSTDYADSVKGRFTISADTSKNTAYLQMNSLRAEDTAVYYCARTWLLRWVMDLWGQGTLVTVSS
VL: DIQMTQSPSSLSASVGDRVTITCRASQDVSTAVAWYQQKPGKAPKLLIYSAKFLYSGVPSRFSGSGSGTDFTLTISSLQPEDFATYYCQQSYTTPPTFGQGTKVEIK
notes: Human kappa IgG1
B3: 1F11/Y102L T110A IgG (antibody, name in Kabat numbering, V domains shown)
VH: EVQLVESGGGLVQPGGSLRLSCAASGFTFSNTYISWVRQAPGKGLEWVASITPSSGSTDYADSVKGRFTISADTSKNTAYLQMNSLRAEDTAVYYCARTWLLRWVMDLWGQGTLVAVSS
VL: DIQMTQSPSSLSASVGDRVTITCRASQDVSTAVAWYQQKPGKAPKLLIYSAKFLYSGVPSRFSGSGSGTDFTLTISSLQPEDFATYYCQQSYTTPPTFGQGTKVEIK
notes: Human kappa IgG1
B4: 3F5/Y102L IgG (antibody, name in Kabat numbering, V domains shown)
VH: EVQLVESGGGLVQPGGSLRLSCAASGFTFSNTYISWVRQAPGKGLEWVASITPSSGQTDYADSVKGRFTISADTSKNTAYLQMNSLRAEDTAVYYCARTWLLRWVMDLWGQGTLVTVSS
VL: DIQMTQSPSSLSASVGDRVTITCRASQDVSTAVAWYQQKPGKAPKLLIYSASFLYSGVPSRFSGSGSGTDFTLTISSLQPEDFATYYCQQSYTTPPTFGQGTKVEIK
notes: Human kappa IgG1
B5: 3F5/Y102L T110A IgG (antibody, name in Kabat numbering, V domains shown)
VH: EVQLVESGGGLVQPGGSLRLSCAASGFTFSNTYISWVRQAPGKGLEWVASITPSSGQTDYADSVKGRFTISADTSKNTAYLQMNSLRAEDTAVYYCARTWLLRWVMDLWGQGTLVAVSS
VL: DIQMTQSPSSLSASVGDRVTITCRASQDVSTAVAWYQQKPGKAPKLLIYSASFLYSGVPSRFSGSGSGTDFTLTISSLQPEDFATYYCQQSYTTPPTFGQGTKVEIK
notes: Human kappa IgG1
B6: 1F11/2C11/3F5 triple mutant IgG (antibody, name in Kabat numbering, V domains shown)
VH: EVQLVESGGGLVQPGGSLRLSCAASGFTFSNTYISWVRQAPGKGLEWVASITPSSGQTDYADSVKGRFTISADTSKNTAYLQMNSLRAEDTAVYYCARTWLLRWVMDYWGQGTLVTVSS
VL: DIQMTQSPSSLSASVGDRVTITCRASQDVSTAVAWYQQKPGKAPKLLIYSAKFLYSGVPSRFSGSGSGTDFTLTISSLQPEDFATYYCQQSYTQPPTFGQGTKVEIK
notes: S52K put into the 2C11 light chain, paired with the 3F5 heavy chain; human kappa IgG1
B7: 1F11 IgG (antibody, V domains shown)
VH: EVQLVESGGGLVQPGGSLRLSCAASGFTFSNTYISWVRQAPGKGLEWVASITPSSGSTDYADSVKGRFTISADTSKNTAYLQMNSLRAEDTAVYYCARTWLLRWVMDYWGQGTLVTVSS
VL: DIQMTQSPSSLSASVGDRVTITCRASQDVSTAVAWYQQKPGKAPKLLIYSAKFLYSGVPSRFSGSGSGTDFTLTISSLQPEDFATYYCQQSYTTPPTFGQGTKVEIK

What follows are binders tested against linear diubiquitin (Boston Biochem) (Homo sapiens (Human), UniProt P0CG48 1-152) (assay: western blot, 1 µg/mL IgG).
B1: binds.
B2: binds.
B3: binds.
B4: binds.
B5: binds.
B6: binds.

These binders were tested against T1, K63-linked diubiquitin (Boston Biochem) (Homo sapiens (Human), UniProt P0CG48 1-76, isopeptide bond between the C-terminus of one ubiquitin and Lys63 of the other) (assay: western blot).
T1 construct: Two ubiquitin units; also called K63 diUb
Experimental: Non-specific binding sites on the membranes were blocked by incubation in 5% milk in PBST for 1 hour at 25° C. with shaking. […] The membranes were washed three times in PBST with shaking. The IgGs were detected by incubating the membrane in a 1:10,000 dilution of a goat anti-human Fc fragment-specific IR Dye 800CW-conjugated secondary antibody (Rockland Immunochemicals) in 5% milk in PBST for 30 minutes at 25° C. with shaking. The membranes were then washed three times in PBST followed by one wash in PBS.
B7: no binding.
